Earlier results in article PMC2164963.
pKd: −log10 of the molar value.

Biological target: EBNA-1 (Epstein-Barr virus) (UniProt P03211)

Substance: EBNA-1 (from UniProt P03211)
- pKd: 9.00
